According to publication PMC3750474:

Columns and labels:
[1] = target: HIV-1 capsid CAN (Human immunodeficiency virus 1) (UniProt O93182); settings: cited from earlier work
[2] = target: HIV-1 M-group (NL4-3) N-terminal capsid domain (HIV-1 M-group (NL4-3))
[3] = target: HIV-1 M-group (NL4-3) N-terminal capsid domain (HIV-1 M-group (NL4-3)); assay: ITC; MicroCal ITC200, 15°C, 50 mM potassium phosphate pH 7.4, 100 mM NaCl, 1 mM DTT; NUP358Cyp (typical 2.5 mM) in the syringe, capsid domain (typical 0.2 mM) in the cell; one set of binding sites model
[4] = target: HIV-1 M-group (NL4-3) N-terminal capsid domain; assay: ITC

Row | Substance | Kd [1] [µM] | rate of cis-trans isomerization of the capsid G89-P90 bond catalysed by NUP358Cyp (NMR ZZ-exchange; 430 μM CA^N, 35 μM NUP358Cyp, 298 K) [2] [s⁻¹] | Kd [3] [µM] | other: N (stoichiometry) [4] | other: ΔH [4] [kcal/mol] | other: ΔS ((cal/mol)/deg) [4]
1 | NUP358 Cyp (from UniProt P49792) | 200 |  |  |  |  | 
2 | cyclophilin domain from human NUP358 (from UniProt P49792 3057-3224) (domain or fragment) |  | 12.1 | 94 |  |  | 
3 | cyclophilin domain from human NUP358 (from UniProt P49792) V61M; V113F |  |  |  | 1.43 | -7.45 | -5.26
4 | cyclophilin domain from human NUP358 (from UniProt P49792) V113F |  |  |  | 0.74 | -10.8 | -16.5
